Values joined by “and” are separate entries in the source; they are usually repeats but may differ in a detail not shown here. Identical values can stand only once.
Tests used:
[1] = biological target: His6-HA4-AsLOV2 (SS58 insertion, C450V mutant) (Avena sativa); test: BLI; Octet RED96e; 6x-histidine tagged OptoMB variant loaded on Ni-NTA sensors, YFP-SH2 in solution at several concentrations; Buffer A (Tris 50 mM pH 8.0, NaCl 150 mM); illumination: 450 nm light (blue LED panel above the plate, lid open); binding and unbinding curves fitted together to a mass-action model; single experiments
[2] = biological target: HA4-AsLOV2 (SS58 insertion, V416L mutant) (Avena sativa); test: as above
[3] = biological target: His6-HA4-AsLOV2 (SS58 insertion): αSH2-OptoMB (Avena sativa); test: BLI; Octet RED96e; 6x-histidine tagged OptoMB variant loaded on Ni-NTA sensors, YFP-SH2 in solution at several concentrations; Buffer A (Tris 50 mM pH 8.0, NaCl 150 mM); illumination: ambient (ambient laboratory light and the instrument's internal light sufficed to trigger the lit conformation of the light-sensitive constructs); binding and unbinding curves fitted together to a mass-action model; single experiments
[4] = biological target: His6-HA4-AsLOV2 (SS58 insertion, C450V mutant) (Avena sativa); test: as above
[5] = biological target: HA4-AsLOV2 (SS58 insertion, V416L mutant) (Avena sativa); test: as above
[6] = biological target: His6-SUMO-HA4-AsLOV2 (SS58 insertion, V416I, G528A, N538E mutant) (Avena sativa); test: as above
[7] = biological target: T1, OptoMB_(C450V), His-tagged (Avena sativa, UniProt O49003 408-543, C450V); test: BLI; DARK conformation: Octet RED96e, no external light source; His-tagged OptoMB_(C450V) loaded on Ni-NTA sensors, YFP-SH2 in solution; Buffer A (Tris 50 mM pH 8.0, NaCl 150 mM)
[8] = biological target: T1, OptoMB_(C450V), His-tagged; test: BLI; dark
[9] = biological target: T2, OptoMB_(V416L), His-tagged (Avena sativa, UniProt O49003 408-543, V416L); test: BLI; light
[10] = biological target: T1, OptoMB_(C450V), His-tagged; test: BLI; dark; remark: listed apart in the source
[11] = biological target: Monobody HA4 (6x-histidine tagged); test: BLI; Octet RED96e; His-tagged HA4 loaded on Ni-NTA sensors, YFP-SH2 in solution; Buffer A (Tris 50 mM pH 8.0, NaCl 150 mM); state of illumination not given ('–')
[12] = biological target: T2, OptoMB_(V416L), His-tagged; test: BLI; LIGHT conformation: Octet RED96e with the lid open and a blue LED panel above the plate (for the V416I-G528A-N538E variant pre-illumination); His-tagged OptoMB variants loaded on Ni-NTA sensors, YFP-SH2 in solution; Buffer A (Tris 50 mM pH 8.0, NaCl 150 mM)
[13] = biological target: αSH2 OptoMonobody (OptoMB), His-tagged, wild-type AsLOV2 (Avena sativa) (UniProt O49003); test: as above
[14] = biological target: T2, OptoMB_(V416L), His-tagged; test: BLI; light; remark: listed apart in the source

B1: YFP-SH2 (fusion of yellow fluorescent protein and the SH2 domain of human Abl kinase), purified (domain or fragment)
chain: SLEKHSWYHGPVSRNAAEYLLSSGINGSFLVRESESSPGQRSISLRYEGRVYHYRINTASDGKLYVSSESRFNTLAELVHHHSTVADGLITTLHYPAPKRNKPTVYGVSPNY
Kd [1]: 0.27 µM
koff [1]: 0.013 s⁻¹
kon [1]: 48000 M⁻¹ s⁻¹
Kd [2]: 60 µM and 42 µM
koff [2]: 0.2 s⁻¹ and 0.24 s⁻¹
kon [2]: 3300 M⁻¹ s⁻¹ and 5800 M⁻¹ s⁻¹
Kd [3]: > 100 µM
kon [3]: < 1000 M⁻¹ s⁻¹
Kd [4]: 0.06 µM and 0.23 µM
koff [4]: 0.006 s⁻¹ and 0.013 s⁻¹
kon [4]: 110000 M⁻¹ s⁻¹ and 56000 M⁻¹ s⁻¹
Kd [5]: 87 µM
koff [5]: 0.25 s⁻¹
kon [5]: 2900 M⁻¹ s⁻¹
Kd [6]: > 100 µM
kon [6]: < 1000 M⁻¹ s⁻¹

B2: YFP-SH2, purified (fusion of YFP and the SH2 domain of human Abl kinase) (domain or fragment)
chain: B1 chain
Kd [7]: 0.19 µM
koff [7]: 0.01 s⁻¹
kon [7]: 71000 M⁻¹ s⁻¹
koff [8]: 0.00599 s⁻¹
koff [9]: 0.254 s⁻¹
Kd [10]: 0.0569 µM
Kd [11]: 0.23 µM
koff [11]: 0.0145 s⁻¹
kon [11]: 63100 M⁻¹ s⁻¹
Kd [12]: 63 µM
koff [12]: 0.23 s⁻¹
kon [12]: 4000 M⁻¹ s⁻¹
Kd [13]: > 100 µM
kon [13]: < 1000 M⁻¹ s⁻¹
Kd [14]: 86.7 µM

Source: PMC7427095 (2020)
